Usually Kd stands for a measure of binding affinity in units of concentration. In general, koff refers to the rate constant with which the complex falls apart. One may read the kon as a measure of how fast the partners come together. In general, EC50 (read off the curve) refers to the concentration needed to bring the measured effect to its halfway point.

Test [1] addresses T1, recombinant human interleukin-6 (IL6) (human, UniProt P05231 30-212). Description: cell-based or functional assay.
Test [2] concerns the target T1, recombinant human interleukin-6 (IL6). Description: cell-based or functional assay. This is another data set of the same source.
Test [3] has the same target. Kind of test: SPR (BIAcore T200), IgG captured by anti-human IgG, IL6 injected at 0.4-25.6 nM. The method, then: IgG binding affinity was measured by using human antibody capture kit (GE healthcare) in BIAcore T200 system (GE healthcare). The mouse anti-human IgG was immobilized on a CMS sensor chip via amine coupling. Approximately 700 RU of purified anti-IL6 IgG in HBS-EP+ buffer were captured onto the immobilized surface. The recombinant human IL6 (R&D Systems) at concentrations ranging from 25.6 nM to 0.4 nM in HBS-EP+ buffer was injected for 2 minutes using a flow rate of 30 μl/min. Dissociation of bound antigen in HBS⁻EP⁺ buffer flow was followed for 7 minutes. The surfaces IgG were regenerated after each cycle using regeneration solution (3M MgCl₂). The dissociation constant (KD) was calculated as kd/ka.
A general note: SPR reads the build-up and loss of mass on a sensor chip optically.

In a further test the target is T2, recombinant human IL11 (human, UniProt P20809 22-199).
T2 sequence (looked up): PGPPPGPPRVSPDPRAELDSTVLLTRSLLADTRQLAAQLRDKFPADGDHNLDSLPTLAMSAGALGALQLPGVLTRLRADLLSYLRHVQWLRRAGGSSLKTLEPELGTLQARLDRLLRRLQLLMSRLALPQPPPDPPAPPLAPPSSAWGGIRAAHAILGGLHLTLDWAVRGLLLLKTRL
Description: ELISA, plate coated with the cytokine at 2 µg/ml, FB704 in four-fold serial dilutions, HRP-labeled goat anti-human IgG, A450. The procedure: (§1) Plates were coated with recombinant human IL3, IL4, IL5, IL6, IL11, IL17A, CNTF, OSM, IGF-1 (R&D Systems), IL2, FGF (Prospec), VEGF, TNF-α, EGF (Peprotech) at 2 μg/ml in 0.1M NaHCO₃ buffer at 4° C. overnight. After being washed by PBS, the wells were blocked with 1% (w/v) BSA in PBS at RT for 1 h. Purified anti-IL6 antibodies in four-fold serial dilutions at a starting concentration of 2 μg/ml were placed into the wells and incubated at RT for 1 h. The plate was washed in PBS containing 0.1% (w/v) Tween 20 and then probed with HRP-labeled goat anti-human IgG (KPL) diluted 1:10,000 in 1% BSA-PBS for 40 min at RT. The plate was again washed and a TMB substrate solution was added to develop color. Stop solution (1M H₂SO₄) was then added and the absorption at 450 nm quantitated using VERSA max (Molecular Devices).
(§2) An ELISA assay as described herein was performed to confirm the binding specificity of high-affinity anti-IL6 antibodies described herein. Briefly, plates were coated with different cytokines as indicated in FIG. 3A (IL6 family cytokines) and FIG. 3B (non-IL6 family cytokines) and the binding activities of the FB704 antibody clone (i.e. Ag1-4-6) to those cytokines were examined.
Background: In an ELISA, binding on a coated surface is turned into a signal by an enzyme label.

A further test has as its target T3, recombinant human IL17A (human, UniProt Q16552 20-155, limits assumed).
T3 sequence (looked up): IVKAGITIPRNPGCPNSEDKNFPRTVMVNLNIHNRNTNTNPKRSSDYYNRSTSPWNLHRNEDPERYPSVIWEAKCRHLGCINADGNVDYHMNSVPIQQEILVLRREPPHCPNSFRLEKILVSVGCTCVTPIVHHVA
The description is as above. The procedure:
as §1, §2

The target in another test is T4, recombinant human CNTF (human, UniProt P26441 2-200).
T4 sequence (looked up): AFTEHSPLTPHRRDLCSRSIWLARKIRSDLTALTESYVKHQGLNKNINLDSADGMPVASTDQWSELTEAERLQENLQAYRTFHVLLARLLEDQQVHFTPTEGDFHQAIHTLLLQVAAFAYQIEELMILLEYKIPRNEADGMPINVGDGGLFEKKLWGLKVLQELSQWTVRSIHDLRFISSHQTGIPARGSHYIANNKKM
Described as above. The method, then:
as §1, §2

The target of the next test is T5, recombinant human OSM (human, UniProt P13725 26-221, limits assumed).
T5 sequence (looked up): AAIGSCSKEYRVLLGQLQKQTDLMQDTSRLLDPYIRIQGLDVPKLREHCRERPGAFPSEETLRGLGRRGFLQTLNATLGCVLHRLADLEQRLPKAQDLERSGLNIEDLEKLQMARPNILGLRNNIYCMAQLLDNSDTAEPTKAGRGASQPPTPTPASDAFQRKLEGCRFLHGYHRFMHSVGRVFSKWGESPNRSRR
Described as above. The method, then: as §1, §2

In a further test the target is recombinant human IL2 (human, UniProt P60568 21-153). Described as above. The method, then: as §1, §2
For a further test, the target named is T6, recombinant human IL3 (human, UniProt P08700 20-152).
T6 sequence (looked up): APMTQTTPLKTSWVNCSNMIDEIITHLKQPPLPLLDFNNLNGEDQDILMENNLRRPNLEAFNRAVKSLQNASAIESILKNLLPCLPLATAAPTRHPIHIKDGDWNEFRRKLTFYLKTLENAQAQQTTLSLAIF
The test is described as above. The procedure:
as §1, §2

A further test concerns the target T7, recombinant human IL4 (human, UniProt P05112 25-153).
T7 sequence (looked up): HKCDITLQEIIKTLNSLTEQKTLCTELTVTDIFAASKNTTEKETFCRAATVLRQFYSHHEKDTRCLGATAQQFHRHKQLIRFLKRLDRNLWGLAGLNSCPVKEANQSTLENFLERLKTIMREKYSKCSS
Described as above. The method, then:
as §1, §2

The target in the next test is T8, recombinant human IL5 (human, UniProt P05113 20-134).
T8 sequence (looked up): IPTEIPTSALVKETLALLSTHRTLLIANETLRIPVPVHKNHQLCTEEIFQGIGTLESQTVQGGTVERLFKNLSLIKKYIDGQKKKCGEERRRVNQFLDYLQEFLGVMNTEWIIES
The description is as above. The method, then:
as §1, §2

The target of another test is recombinant human IGF-1 (human, UniProt P05019 49-118). Kind of test: ELISA, plate coated with the cytokine at 2 µg/ml, FB704 in four-fold serial dilutions, HRP-labeled goat anti-human IgG, A450 [Cont'd) B]. The method, then: as §1, §2
For the next test, the target named is recombinant human VEGF (human, UniProt P15692-4 27-191, limits assumed). Described as above. The method, then:
as §1, §2

For a further test, the target named is recombinant human TNF-α (human, UniProt P01375 77-233). The description is as above. The method, then:
as §1, §2

Another test has as its target recombinant human EGF (human, UniProt P01133 971-1023). The test is described as above. The method, then: as §1, §2
Test [4] deals with T1, recombinant human interleukin-6 (IL6). Description: ELISA, plate coated with recombinant human IL6 at 2 µg/ml, FB704 in four-fold serial dilutions from 2 µg/ml, HRP-labeled goat anti-human IgG, A450. The procedure:
as §1, §2

Test [5] has the same target. Kind of test: ELISA, plate coated with recombinant human IL6 at 2 µg/ml, FB704 in four-fold serial dilutions from 2 µg/ml, HRP-labeled goat anti-human IgG, A450 [Cont'd) B]. The method, then:
as §1, §2

Sequence of recombinant human IL2 (P60568 21-153 limits assumed): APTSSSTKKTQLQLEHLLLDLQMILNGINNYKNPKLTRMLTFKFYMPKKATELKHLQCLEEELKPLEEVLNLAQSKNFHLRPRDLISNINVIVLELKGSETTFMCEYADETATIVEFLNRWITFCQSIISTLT
Sequence of recombinant human VEGF (P15692 other isoform, or with tags, fused parts or gaps limits assumed): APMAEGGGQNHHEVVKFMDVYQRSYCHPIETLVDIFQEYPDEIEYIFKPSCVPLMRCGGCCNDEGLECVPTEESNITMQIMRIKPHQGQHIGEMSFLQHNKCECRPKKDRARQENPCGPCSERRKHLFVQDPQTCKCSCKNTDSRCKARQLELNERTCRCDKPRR
Sequence of recombinant human IGF-1 (P05019 49-118 limits assumed): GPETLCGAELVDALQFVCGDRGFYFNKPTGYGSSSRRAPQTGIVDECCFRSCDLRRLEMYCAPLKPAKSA
Sequence of recombinant human TNF-α (P01375 77-233 limits assumed): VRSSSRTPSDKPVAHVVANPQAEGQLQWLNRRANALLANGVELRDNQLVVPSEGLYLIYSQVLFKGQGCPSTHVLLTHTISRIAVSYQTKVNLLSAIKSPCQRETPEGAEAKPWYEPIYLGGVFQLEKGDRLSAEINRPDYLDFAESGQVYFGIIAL
Sequence of recombinant human EGF (P01133 971-1023 limits assumed): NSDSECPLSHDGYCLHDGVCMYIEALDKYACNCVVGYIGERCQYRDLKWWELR

B1: Ag1-4-6 (fully human anti-IL6 IgG1 antibody) (antibody, V domains shown)
VH: EVQLVESGPALVKPTQTLTLTCTFSGFSLSTGGMSVSWIRQPPGKALEWLARIDWDDDKFYTPSLKTRLTISRDTSKNQVVLIMTNMDPVDTATYYCARMHIDDSNGYYSDAFHIWGQGTMVTVSS
VL: EIVLTQSPATLSVSPGERVTLSCRDSQSVSSTSLAWYQQKSGQAPRLLIYDTSNRATGIPARFSGGGSGTDFTLTISSLEPEDFAVYYCSFVSRPYPRFTFGQGTKVEIK
notes: also called FB704
B1: in [1], the “IC50 of inhibition of IL6-dependent B9 cell proliferation (WST-1, 72 h)” value (shortened to “IC50 of inhibition … (WST-1, 72 h)”) is 0.0468 µg/mL. Besides, the “inhibition percentage of control of STAT3 phosphorylation in U266 cells, antibody at 0.05 µg/ml” value (from here on “inhibition percentage of control … at 0.05 µg/ml”) in [2] came to 0%. Moreover, in test [2], the “inhibition percentage of control of STAT3 phosphorylation in U266 cells, antibody at 0.5 µg/ml” value (shortened to “inhibition percentage of control … at 0.5 µg/ml”) is 60%. The Kd in test [3] turned out to be 0.75 nM. Moreover, the koff in [3] came to 0.00121 s⁻¹. In addition, in test [3], the kon amounted to 1.61e+06 M⁻¹ s⁻¹. Moreover, the binding result with recombinant human IL11, with recombinant human IL17A, in the test with recombinant human CNTF, with recombinant human OSM, in the test with recombinant human IL2 and with recombinant human IL3 was “no binding (tested: 2 µg/ml)” each time. Also, the binding result with recombinant human IL4, with recombinant human IL5, in the test with recombinant human IGF-1, with recombinant human VEGF, in the test with recombinant human TNF-α and with recombinant human EGF was “no binding (tested: 2 µg/ml)” in each case. The “EC50 (read off the curve)” value in test [4] and in [5] was ~0.01 µg/mL throughout.

B2: 1-4-62 (fully human anti-IL6 IgG1 antibody) (antibody, V domains shown)
VH: EVQLVESGPALVKPTQTLTLTCTFSGFSLSTGGMSVSWIRQPPGKALEWLARIDWDDDKFYTPSLKTRLTISRDTSKNQVVLIMTNMDPVDTATYYCARMHIDDSNGYYSDAFHIWGQGTMVTVSS
VL: EIVLTQSPATLSVSPGERVTLSCRDSQSVSSTSLAWYQQKSGQAPRLLIYDTSNRATGIPARFSGGGSGTDFTLTISSLEPEDFAVYYCLVRNNWPPRFTFGQGTKVEIK
notes: also called parent clone
In the case of B2, in [1], the “IC50 of inhibition … (WST-1, 72 h)” value was 0.618 µg/mL. For the same molecule, in [2], the “inhibition percentage of control … at 0.05 µg/ml” value turned out to be 0% and the “inhibition percentage of control … at 0.5 µg/ml” value was found to be 8%. In [3], the Kd came out at 3.85 nM, the koff stood at 0.00166 s⁻¹ and the kon is 438000 M⁻¹ s⁻¹.

B3: HAg1T-3-10 (fully human anti-IL6 IgG1 antibody) (antibody, V domains shown)
VH: EVQLVESGPALVKPTQTLTLTCTFSGFSLSTGGMSVSWIRQPPGKALEWLARIDWDDDKFYTPSLKTRLTISRDTSKNQVVLIMTNMDPVDTATYYCARMHIDDSNGYFSDAFHIWGQGTMVTVSS
VL: EIVLTQSPATLSVSPGERVTLSCRDSQSVSSTSLAWYQQKSGQAPRLLIYDTSNRATGIPARFSGGGSGTDFTLTISSLEPEDFAVYYCSFVSRPYPRFTFGQGTKVEIK
notes: also called HAgT1-3-10
With B3, the “IC50 of inhibition … (WST-1, 72 h)” value in test [1] is 0.00456 µg/mL. Also, in test [2], the “inhibition percentage of control … at 0.05 µg/ml” value turned out to be 49% and the “inhibition percentage of control … at 0.5 µg/ml” value amounted to 93%. Also, in test [3], the Kd is 0.27 nM, the dissociation rate constant (koff) stood at 0.0006 s⁻¹ and the association rate constant (kon) was 2.24e+06 M⁻¹ s⁻¹.
